T1: GST-His-SHARP R3-4h (Homo sapiens, UniProt Q96T58 436-620)
T1 sequence: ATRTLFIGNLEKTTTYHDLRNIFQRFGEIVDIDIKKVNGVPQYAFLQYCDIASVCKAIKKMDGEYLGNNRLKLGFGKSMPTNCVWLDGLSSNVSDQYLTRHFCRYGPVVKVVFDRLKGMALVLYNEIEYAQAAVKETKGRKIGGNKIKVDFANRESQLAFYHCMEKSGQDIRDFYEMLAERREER

T2: SHARP R2-3-4h (SHARP-RRM) (Homo sapiens, UniProt Q96T58 335-620)
T2 sequence: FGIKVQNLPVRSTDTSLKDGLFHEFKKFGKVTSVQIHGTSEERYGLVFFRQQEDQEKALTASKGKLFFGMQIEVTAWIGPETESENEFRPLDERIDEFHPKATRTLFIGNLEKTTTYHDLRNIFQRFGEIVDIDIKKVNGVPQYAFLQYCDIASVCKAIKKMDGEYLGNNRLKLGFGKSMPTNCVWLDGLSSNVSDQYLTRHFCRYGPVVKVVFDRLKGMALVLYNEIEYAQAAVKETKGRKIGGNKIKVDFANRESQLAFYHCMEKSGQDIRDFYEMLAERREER

B1: SRA RNA H12-H13 extended (structured_RNA)
RNA: GGGAGCAGGUAUGUGAUGACAUCAGCCGACGCCUGGCACUGCUGCAGGAACAGUGGGCUGGAGGAAAGUUGUCAAUACCUGUAAGAGACCGAAUUCACUGGCCGUCGUUUUACAACGUCGUGACUGGGAAAAC
B2: A15 (ssRNA)
RNA: AAAAAAAAAAAAAAA

Columns and labels:
GST-His-SHARP R3-4h = target: T1, GST-His-SHARP R3-4h; test: UV crosslinking
[1] = target: T2, SHARP R2-3-4h (SHARP-RRM); test: competition

| Binder | binding result (GST-His-SHARP R3-4h) | binding result [1] |
| --- | --- | --- |
| B1 | binds |  |
| B2 |  | no binding |

Reference: PMC4041450
